Assay results: publication PMC8934645, “Discovery of potent and versatile CRISPR–Cas9 inhibitors engineered for chemically controllable genome editing”

Tests used:
St3Cas9;AcrIIA24 = St3Cas9;AcrIIA24 (Streptococcus …, UniProt Q03JI6;A0A3G8FCC3 1-1388;1-104, |); experiment: EMSA; sgRNA; AcrIIA24 added before DNA; supershift; 20 mM Tris-HCl pH 7.6, 150 mM KCl, 5 mM EDTA (Results text: 10 mM EDTA), 5 mM MgCl2, 1 mM DTT, 5% glycerol, 50 ug/ml heparin, 0.01% Tween 20, 100 ug/ml BSA; RNP and DNA steps 37 C 10 min, Acr RT 20 min; RNP 256 nM, DNA 20 nM; RNA EMSA 256 nM Cas9 and sgRNA, 37 C; conditions: protein: recombinant;recombinant; tags: His (pET28a, Ni-NTA);tag removed by TEV; copies: 1;1; label: Cy5 on target strand; blunt
SpyCas9;AcrIIA32.1 = SpyCas9;AcrIIA32.1 (Streptococcus pyogenes;Streptococcus …, UniProt Q99ZW2; 1-1368;, |); experiment: EMSA; sgRNA; AcrIIA32.1 added after DNA; supershift; 20 mM Tris-HCl pH 7.6, 150 mM KCl, 5 mM EDTA (Results text: 10 mM EDTA), 5 mM MgCl2, 1 mM DTT, 5% glycerol, 50 ug/ml heparin, 0.01% Tween 20, 100 ug/ml BSA; RNP and DNA steps 37 C 10 min, Acr RT 20 min; RNP 256 nM, DNA 20 nM; RNA EMSA 256 nM Cas9 and sgRNA, 37 C; conditions: protein: recombinant;recombinant; tags: ;tag removed by TEV; label: Cy5 on target strand; blunt
St1Cas9;AcrIIA30 = St1Cas9;AcrIIA30 (Streptococcus …, UniProt Q03LF7; 1-1121;, |); experiment: EMSA; sgRNA; AcrIIA30 added after DNA; supershift; 20 mM Tris-HCl pH 7.6, 150 mM KCl, 5 mM EDTA (Results text: 10 mM EDTA), 5 mM MgCl2, 1 mM DTT, 5% glycerol, 50 ug/ml heparin, 0.01% Tween 20, 100 ug/ml BSA; RNP and DNA steps 37 C 10 min, Acr RT 20 min; RNP 256 nM, DNA 20 nM; RNA EMSA 256 nM Cas9 and sgRNA, 37 C; conditions: protein: recombinant;recombinant; tags: His (pET28a, Ni-NTA);tag removed by TEV; copies: 1;1; label: Cy5 on target strand; blunt

B1: Substrate DNA, St3Cas9 sgRNA target (dsDNA)
DNA 1: CTCACGGGTGTCATTCTCCACTCAGTGGCAGACCTTGCTCCCGCGAGGAGTAGTCG
DNA 2: CGACTACTCCTCGCGGGAGCAAGGTCTGCCACTGAGTGGAGAATGACACCCGTGAG
Does B1 bind (St3Cas9;AcrIIA24)?
Result: binds

B2: Substrate DNA, SpyCas9 sgRNA target (dsDNA)
DNA 1: CTCACGGGTGTCATTCTCCACTCAGTGGCAGACCTTGCTCCCGCGAGGAGTAGTCG
DNA 2: CGACTACTCCTCGCGGGAGCAAGGTCTGCCACTGAGTGGAGAATGACACCCGTGAG
Does B2 bind (SpyCas9;AcrIIA32.1)?
Result: binds

B3: Substrate DNA, St1Cas9 sgRNA target (dsDNA)
DNA 1: CTCACGGGTGTCATTCTCCACTCAGTGGCAGACCTTGCTCCCGCGAGGAGTAGTCG
DNA 2: CGACTACTCCTCGCGGGAGCAAGGTCTGCCACTGAGTGGAGAATGACACCCGTGAG
Does B3 bind (St1Cas9;AcrIIA30)?
Result: binds
